The target of experiment [1] is T1, KRAS G12V peptide on HLA-A*11:01 (human).
T1 peptide: VVGAVGVGK
In words: Kd or kinetics.

Experiment [2] has as its target T2, KRAS G12V peptide on HLA-A*11:01 (human).
T2 peptide: VVVGAVGVGK
In words: cytokine release.

Experiment [3] has as its target T3, KRAS (short peptide without mutation) peptide on HLA-A*11:01 (human).
T3 peptide: VVGAGGVGK
In words: cytokine release.

The target in experiment [4] is T4, KRAS (short peptide without mutation) peptide on HLA-A*11:01 (human).
T4 peptide: VVVGAGGVGK
In words: cytokine release.

For experiment [5], the target named is T5, KRAS G12D peptide on HLA-A*11:01 (human).
T5 peptide: VVGADGVGK
In words: cytokine release.

The target in experiment [6] is T6, KRAS G12D peptide on HLA-A*11:01 (human).
T6 peptide: VVVGADGVGK
In words: cytokine release.

For experiment [7], the target named is T7, other antigen short peptide (source not named) peptide on HLA-A*11:01 (human).
T7 peptide: SSCSSCPLSK
In words: cytokine release.

B1: KRAS G12V antigen short peptide-specific TCR of SEQ ID NOs 1 and 5 (TCR, V domains shown)
Valpha: QKEVEQNSGPLSVPEGAIASLNCTYSDRVSQSFFWYRQYSGKSPELIMSIYSNGDKEDGRFTAQLNKASQYVSLLIRDSQPSDSATYLCASLKGNNDMRFGAGTRLTVKP
Vbeta: GAGVSQSPRYKVAKRGQDVALRCDPISGHVSLFWYQQALGQGPEFLTYFQNEAQLDKSGLPSDRFFAERPEGSVSTLKIQRTQQEDSAVYLCASSSSRWEQQFFGPGTRLTVL
As to B1, the binding result was “recognises” in experiment [1]; “recognises” in experiment [2]; “no recognition” in experiment [3]; “no recognition” in experiment [4]; “no recognition” in experiment [5]; “no recognition” in experiment [6]. Moreover, the binding result in experiment [7] was “no recognition”.

B2: KRAS G12V antigen short peptide-specific soluble single chain TCR of SEQ ID NO 30 (TCR, V domains shown)
Valpha: QKEVEQNSGPLSVPEGENVSINCTYSDRVSQSFFWYRQYSGKSPELIMSIYSNGDKEDGRFTAQLNKASQYVSLEIRDVQPSDSATYLCASLKGNNDMRFGAGTRLTVKP
Vbeta: GAGVSQSPRYLSVKRGQDVTLRCDPISGHVSLFWYQQAPGQGPEFLTYFQNEAQLDKSGLPSDRFNAERPEGSVSTLKIQRVQPEDSAVYLCASSSSRWEQQFFGPGTRLTVD
As to B2, the binding result in experiment [1] is given as “recognises”.

The values are drawn from patent US20230159613A1 (published 2023).
